The target in assay [1] is T1, human PDL1 (human, UniProt Q9NZQ7 19-290).
T1 construct: whole, on cells; Also used as the target for the monovalent anti-PDL1 antibody on M2c-differentiated human macrophages (endogenous PDL1); also called huPDL1; programmed death-ligand 1
Nature of the assay: flow cytometry on CHO-huPDL1 OE cells, Dylight650-conjugated antibody. From the text: (§1) Human macrophages were differentiated from human monocytes for 7 days in the presence of human M-CSF, resulting in M2c-differentiated human macrophages. After 7 days, the differentiated human macrophages were harvested (by scraping), resuspended in PBS, and plated on 96-well plates for use. CHO cells overexpressing human MerTK (CHO-huMerTK OE), CHO cells overexpressing human PDL1 (CHO-huPDL1 OE), and M2c-differentiated human macrophages were stained with Dylight650-conjugated bispecific anti-MerTK:anti-PDL1 antibodies, or bivalent anti-MerTK antibodies for 30 min on ice. A range of antibody concentrations were used in these studies to obtain binding curves. All antibodies tested in these studies were IgG1 having Fc regions comprising LALAPS mutations. Cells were fixed and then acquired on a BD FACS Canto II cytometer. The mean fluorescence intensity (MFI) was calculated using FlowJo software and Kd value was calculated using Prism software.

The target of assay [2] is T2, human MerTK overexpressed on CHO cells (human, UniProt Q12866 21-999).
T2 construct: also called CHO-huMerTK OE; CHO-human MerTK OE cells
T2 sequence: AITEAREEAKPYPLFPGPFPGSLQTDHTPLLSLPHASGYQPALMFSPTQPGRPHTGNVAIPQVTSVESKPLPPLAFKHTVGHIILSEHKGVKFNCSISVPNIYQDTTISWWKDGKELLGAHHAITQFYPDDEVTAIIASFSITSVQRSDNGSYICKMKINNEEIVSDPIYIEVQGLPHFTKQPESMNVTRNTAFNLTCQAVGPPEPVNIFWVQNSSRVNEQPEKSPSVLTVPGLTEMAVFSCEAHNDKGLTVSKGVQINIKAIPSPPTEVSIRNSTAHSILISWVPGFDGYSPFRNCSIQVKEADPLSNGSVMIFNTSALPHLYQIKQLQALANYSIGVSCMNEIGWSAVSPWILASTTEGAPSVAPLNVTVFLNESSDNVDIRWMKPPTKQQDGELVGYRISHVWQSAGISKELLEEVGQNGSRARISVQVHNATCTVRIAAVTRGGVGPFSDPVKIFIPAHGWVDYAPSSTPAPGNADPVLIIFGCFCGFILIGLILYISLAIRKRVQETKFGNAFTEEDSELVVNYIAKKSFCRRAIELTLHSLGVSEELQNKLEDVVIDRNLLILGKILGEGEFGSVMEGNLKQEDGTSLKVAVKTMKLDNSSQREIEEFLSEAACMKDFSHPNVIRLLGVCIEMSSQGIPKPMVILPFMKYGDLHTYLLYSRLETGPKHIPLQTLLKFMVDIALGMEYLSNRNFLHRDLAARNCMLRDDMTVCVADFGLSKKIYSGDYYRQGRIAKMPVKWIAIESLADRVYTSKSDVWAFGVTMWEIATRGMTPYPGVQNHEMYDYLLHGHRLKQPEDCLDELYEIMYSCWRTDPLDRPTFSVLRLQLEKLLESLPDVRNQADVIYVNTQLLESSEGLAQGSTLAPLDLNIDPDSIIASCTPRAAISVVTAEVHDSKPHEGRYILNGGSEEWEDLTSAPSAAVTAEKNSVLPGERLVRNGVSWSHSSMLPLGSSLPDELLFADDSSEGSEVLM
Put plainly: flow cytometry, Dylight650-conjugated antibody on CHO-huMerTK OE cells, MFI. The procedure:
(§2) To determine whether bispecific anti-MerTK:anti-PDL1 antibodies of the present disclosure bind to different cell types, the following experiments were performed. Cells used in these studies included CHO cells overexpressing human MerTK (CHO-human MerTK OE cells), CHO cells overexpressing human PDL1 (CHO-human PDL1 OE cells), and M2c-differentiated human macrophages.
as §1
For orientation: A flow cytometer gives signals particle by particle.

In assay [3] the target is T2, human MerTK overexpressed on CHO cells. Put plainly: flow cytometry on CHO-huMerTK OE cells.
From the text: as §1

For assay [4], the target named is T3, human MerTK on M2c-differentiated human macrophages (human, UniProt Q12866 21-999).
T3 construct: Endogenous MerTK of primary human macrophages; also called M2c-huMacrophages
T3 sequence: T2 sequence
Put plainly: flow cytometry on M2c-differentiated human macrophages.
From the text: as §1

In assay [5] the target is T1, human PDL1. Nature of the assay: flow cytometry, Dylight650-conjugated antibody on CHO-huPDL1 OE cells, MFI. The procedure:
as §2, §1

The values that follow come from patent US20240279341A1 (Alector, published 2024).

One may read the EC50 (read off the curve) as the concentration at which the effect is half-maximal. High values mean a less potent agent, low ones a more potent agent.

T1 sequence (Q9NZQ7 19-290): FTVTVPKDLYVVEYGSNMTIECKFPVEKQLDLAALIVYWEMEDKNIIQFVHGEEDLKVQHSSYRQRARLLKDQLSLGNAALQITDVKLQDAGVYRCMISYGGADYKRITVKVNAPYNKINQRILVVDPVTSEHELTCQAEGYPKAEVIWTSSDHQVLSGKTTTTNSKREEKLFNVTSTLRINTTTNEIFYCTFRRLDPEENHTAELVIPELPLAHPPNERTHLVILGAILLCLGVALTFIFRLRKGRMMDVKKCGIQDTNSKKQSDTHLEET

B1: monovalent anti-MerTK antibody MTK-33.11 (antibody, V domains shown)
VH: QVQLVQSGAEVKKPGASVKVSCKASGYTFTSYWMHWVRQAPGQGLEWIGVIDPSDNYINYNQKFQGRVTMTRDTSTSTVYMELSSLRSEDTAVYYCAREAWTRGYFDYWGQGTLVTVSS
VL: DIQMTQSPSSLSASVGDRVTITCQASRSVRNTVAWYQQKPGKAPKLLIYYASNRYTGVPSRFSGSGSGTDFTFTISSLQPEDIATYYCQQDYRSPFTFGQGTKLEIK
For the molecule B1, the binding result in assay [1] was “no binding”.

B2: bivalent anti-MerTK antibody MTK-33.11 (full IgG) (antibody, V domains shown)
VH: B1 VH
VL: DIQMTQSPSSLSASVGDRVTITCQASRSVRNTVAWYQQKPGKAPKLLIYYASNRYTGVPSRFSGSGSGTDFTFTISSLQPEDIATYYCQQDYRSPFTFGQGTKLEIKR
B2: in assay [2], the concentration giving a half-maximal response (EC50 (read off the curve)) was roughly 4 nM. Moreover, the figures for the “fold higher affinity compared to its monovalent form (monovalent MTK-33.11)” value in assay [3] and in assay [4] were roughly 10 fold and roughly 5 fold, respectively. Also, the binding result in assay [5] is on record as “no binding (tested: about 70 nM)”.

B3: monovalent anti-MerTK antibody MTK-16.2 (antibody, V domains shown)
VH: QVQLVQSGSELKKPGASVKVSCKASGYTFTNHGMNWVRQAPGQGLEWMGWINTYTGEPTYADDFKGRFVFSLDTSVSTAYLQISSLKAEDTAVYYCARKGVTAARYFDYWGQGTLVTVSS
VL: DIQMTQSPSSLSASVGDRVTITCRASQNVRTAVAWYQQKPGKAPKRLIYLASNRHTGVPSRFSGSGSGTEFTLTISNLQPEDFATYYCLQHWNYPLTFGGGTKLEIK
As to B3, the binding result in assay [1] was “no binding”.

B4: bivalent anti-MerTK antibody MTK-16.2 (full IgG) (antibody, V domains shown)
VH: B3 VH
VL: DIQMTQSPSSLSASVGDRVTITCRASQNVRTAVAWYQQKPGKAPKRLIYLASNRHTGVPSRFSGSGSGTEFTLTISNLQPEDFATYYCLQHWNYPLTFGGGTKLEIKR
Consider B4, for which, in assay [5], the binding result was “no binding (tested: about 70 nM)”.
